Laboratory results taken from US10501734B2, “Compositions and methods of use thereof for making polypeptides with many instances of nonstandard amino acids” (Yale University, priority 2014, dated 2019).
Entries after “also recorded” stand apart in the source; their conditions may differ.

Assays:
GFP(3TAG) = experiment: nsAA library screening, GFP(3TAG) fluorescence in 384 well plates; format: cell-based, E. coli; conditions: GFP(3TAG) production in the presence of pAcF, pAzF and 236 other nsAAs
Description: Liquid cell cultures of strains harboring chromosomally integrated OTSs and GFP reporter plasmids were inoculated from frozen stocks and grown to confluence overnight. Cultures were then inoculated at 1:20 dilution in LBmin media supplemented with 30 μg/ml kanamycin. Strains were inoculated by addition of 1:20 confluent cell culture (grown overnight) and allowed to grow at 34° C. to an OD600 of 0.5-0.8 in a shaking plate incubator at 650 r.p.m (˜3 h). AARS expression was then induced by the addition of 0.2% arabinose, GFP expression was induced by the addition of 60 ng/ul anhydrotetracycline, and the appropriate nsAA was added to a concentration of 1 mM. Cells were incubated at 34° C. for an additional 16 h. Liquid cell cultures of strains harboring plasmid-based OTSs and GFP or ELP-GFP reporter plasmids were inoculated from frozen stocks and grown to confluence overnight. Cultures were then inoculated at 1:20 dilution in 2×YT media supplemented with 30 μg/ml kanamycin and 20 μg/ml chloramphenicol. […] Cells were allowed to grow at 34° C. to an OD600 of 0.5-0.8 in a shaking plate incubator at 650 r.p.m (˜3 h), reporter protein expression was then induced by the addition of 60 ng/ul anhydrotetracycline, and cells were incubated at 34° C. for an additional 16 h.
For 384 well plate-based assays, fluorescence and OD600 were directly measured following expression. For 96 well plate-based assays, cells were centrifuged at 4,000 g for 4 min. Supernatant medium was removed and cells were resuspended in PBS. This process was repeated twice with PBS. GFP fluorescence was measured on a Biotek spectrophotometric plate reader using excitation and emission wavelengths of 395 and 509 nm, respectively). Fluorescence signals were normalized by dividing the fluorescence counts by the OD600 reading. The nsAAs used in this study were purchased from Sigma-Aldrich (St. Louis, Mo.), Chemlmpex (Wood Dale, Ill.), and Bachem (Torrance, Calif.). Solutions of nsAAs (50 mM) were made in water or 50 mM NaOH; these stock solutions were diluted 50- or 100-fold (to 1 mM final concentration) into medium used for bacterial growth. […]

ELP(30TAG)-GFP = experiment: ELP expression and purification, yield of purified ELP(30TAG)-GFP; format: cell-based, E. coli
Description: Before batch expression, starter cultures (2 mL) of 2×YT media supplemented with 30 μg/mL kanamayacin and 20 μg/mL chloramphenicol were inoculated with transformed cells from a fresh agar plate or from stocks stored at −80° C., and incubated overnight at 34° C. while shaking at 250 rpm. Expression cultures (250 ml flasks containing 50 ml of 2×YT media, antibiotics, 0.2% arabinose and 1 mM of the nsAA) were inoculated with 0.5 ml of the starter culture and incubated at 34° C. for 4 h and then reporter protein expression was induced with 60 μg/mL anhydrotetracyclin.
Cells were harvested 24 h after inoculation by centrifugation at 4,000 g for 15 min at 4° C. The cell pellet was resuspended by vortex in ˜1.5 mL PBS buffer and stored at −80° C. or immediately purified. For purification, resuspended pellets were lysed by ultrasonic disruption (9 cycles of 10 s sonication separated by 40 s intervals). Poly(ethyleneimine) (0.2 mL of 10% solution) was added to each lysed suspension before centrifugation at 15,000 g for 3 min to separate cell debris from the soluble cell lysate.
All ELP constructs were purified by a modified Inverse Transition Cycling (ITC) protocol consisting of multiple “hot” and “cold” spins using sodium citrate to trigger the phase transition. Before purification, the soluble cell lysate was incubated for 1-2 min at ˜65° C. to denature native E. coli proteins. For “hot” spins, the ELP phase transition was triggered by adding sodium citrate to the cell lysate or the product of a previous cycle of ITC at a final concentration of ˜0.5 M. The solutions were then centrifuged at 14,000 g for 3 min and the pellets were resuspended in PBS, followed by a 3-5 min “cold” spin performed without addition of sodium citrate to remove denatured contaminant. Additional rounds of ITC were carried out as needed until sufficient purification was achieved.
Protein concentration was calculated by measuring the OD280 of purified protein stocks according to the following extinction coefficients for ELP(30TAG)-GFP.

Molecule	nsAA specificity (polyspecificity) (GFP(3TAG))	Yield of purified ELP(30TAG)-GFP (ELP(30TAG)-GFP; nsAA pAcF, GRO) [mg/L]	other results
pAcFRS.1.t1: pAcFRS variant A167D, R257G, SEQ ID NO: 5 (protein) MDEFEMIKRNTSEIISEEELREVLKKDEKSALIGFEPSGKIHLGHYLQIKKMIDLQNAGFDIIILLADLHAYLNQKGELDEIRKIGDYNKKVFEAMGLKAKYVYGSEFQLDKDYTLNVYRLALKTTLKRARRSMELIAREDENPKVAEVIYPIMQVNGCHYRGVDVDVGGMEQRKIHMLARELLPKKVVCIHNPVLTGLDGEGKMSSSKGNFIAVDDSPEEIRAKIKKAYCPAGVVEGNPIMEIAKYFLEYPLTIKGPEKFGGDLTVNSYEELESLFKNKELHPMRLKNAVAEELIKILEPIRKRL	polyspecifity for at least pAcF, pAzF, StyA, 4IF, 4BrF, 4ClF, 4MeF, 4Cf3F, MeY, 4NO2F, 4BuF, BuY, 2NaA, PheF	52.6 ± 6.3	
pAcFRS.2.t1: pAcFRS variant L65V, A167D, R257G, SEQ ID NO: 8 (protein) MDEFEMIKRNTSEIISEEELREVLKKDEKSALIGFEPSGKIHLGHYLQIKKMIDLQNAGFDIIIVLADLHAYLNQKGELDEIRKIGDYNKKVFEAMGLKAKYVYGSEFQLDKDYTLNVYRLALKTTLKRARRSMELIAREDENPKVAEVIYPIMQVNGCHYRGVDVDVGGMEQRKIHMLARELLPKKVVCIHNPVLTGLDGEGKMSSSKGNFIAVDDSPEEIRAKIKKAYCPAGVVEGNPIMEIAKYFLEYPLTIKGPEKFGGDLTVNSYEELESLFKNKELHPMRLKNAVAEELIKILEPIRKRL	polyspecifity for at least pAcF, pAzF, StyA, 4IF, 4BrF, 4ClF, 4MeF, 4Cf3F, MeY, 4NO2F, 4BuF, BuY, 2NaA, PheF		Yield of purified ELP(30TAG)-GFP (ELP(30TAG)-GFP; nsAA 4CF3F, GRO): 53 ± 5.4 mg/L; Yield of purified ELP(30TAG)-GFP (ELP(30TAG)-GFP; nsAA BuY, GRO): 64.5 ± 9.7 mg/L
pAzFRS.1.t1: pAcFRS variant D158V, I159M, L162D, A167Y, R257G, SEQ ID NO: 11 (protein) MDEFEMIKRNTSEIISEEELREVLKKDEKSALIGFEPSGKIHLGHYLQIKKMIDLQNAGFDIIILLADLHAYLNQKGELDEIRKIGDYNKKVFEAMGLKAKYVYGSEFQLDKDYTLNVYRLALKTTLKRARRSMELIAREDENPKVAEVIYPIMQVNVMHYDGVDVYVGGMEQRKIHMLARELLPKKVVCIHNPVLTGLDGEGKMSSSKGNFIAVDDSPEEIRAKIKKAYCPAGVVEGNPIMMEIAKYFLEYPLTIKGPEKFGGDLTVNSYEELESLFKNKELHPMRLKNAVAEELIKILEPIRKRL	specific for pAzF; also recorded: exceptional specificity toward pAzF with almost complete exclusion of any other nsAA		
pAzFRS.2.t1: pAcFRS variant E107T, F108Y, Q109M, R257G, SEQ ID NO: 14 (protein) MDEFEMIKRNTSEIISEEELREVLKKDEKSALIGFEPSGKIHLGHYLQIKKMIDLQNAGFDIIILLADLHAYLNQKGELDEIRKIGDYNKKVFEAMGLKAKYVYGSTYMLDKDYTLNVYRLALKTTLKRARRSMELIAREDENPKVAEVIYPIMQVNGCHYRGVDVAVGGMEQRKIHMLARELLPKKVVCIHNPVLTGLDGEGKMSSSKGNFIAVDDSPEEIRAKIKKAYCPAGVVEGNPIMEIAKYFLEYPLTIKGPEKFGGDLTVNSYEELESLFKNKELHPMRLKNAVAEELIKILEPIRKRL	polyspecific for at least pAcF, pAzF, StyA, 4IF, 4BrF, 4ClF, 4MeF, 4Cf3F, MeY, 4NO2F, 4BuF, BuY, 2NaA, PheF	39.05 ± 3.4	Yield of purified ELP(30TAG)-GFP (ELP(30TAG)-GFP; nsAA 4ClF, GRO): 48.2 ± 11.2 mg/L; Yield of purified ELP(30TAG)-GFP (ELP(30TAG)-GFP; nsAA pAzF, GRO): 41.9 ± 6^ mg/L
pAcFRS: progenitor M. jannaschii based p-acetyl-L-phenylalanine AARS, SEQ ID NO:1 (Young, et al., 2010) (protein, listed as Methanocaldococcus jannaschii) MDEFEMIKRNTSEIISEEELREVLKKDEKSALIGFEPSGKIHLGHYLQIKKMIDLQNAGFDIIILLADLHAYLNQKGELDEIRKIGDYNKKVFEAMGLKAKYVYGSEFQLDKDYTLNVYRLALKTTLKRARRSMELIAREDENPKVAEVIYPIMQVNGCHYRGVDVAVGGMEQRKIHMLARELLPKKVVCIHNPVLTGLDGEGKMSSSKGNFIAVDDSPEEIRAKIKKAYCPAGVVEGNPIMEIAKYFLEYPLTIKRPEKFGGDLTVNSYEELESLFKNKELHPMRLKNAVAEELIKILEPIRKRL		10.5 ± 5.5	Yield of purified ELP(30TAG)-GFP (ELP(30TAG)-GFP; nsAA pAcF, Non-recoded E. coli): 3.04 ± 1.4 mg/L
